Measured values from article PMC7655957.

What was measured:
[1] = target: WT_(ZIP+)/WT_(ZIP−), BICD2_(1–98) heterodimer with C-terminal ZIP+/ZIP− leucine zipper (mouse (cDNA, methods); called human in the results and in the legend of Fig. 1) (UniProt Q921C5); test: ITC; LIC1_(433–458) peptide titrated into ZIP+/ZIP− BICD2 heterodimers in the cell; 20 mM HEPES (pH 7.5), 100 mM NaCl, 0.5 mM TCEP; temperature given in the figure
[2] = target: Y46D_(ZIP+)/WT_(ZIP−), half-functional BICD2_(1–98) heterodimer with C-terminal ZIP+/ZIP− leucine zipper (mouse (cDNA, methods); called human in the results and in the legend of Fig. 1) (UniProt Q921C5); test: as above
HOOK1 (Homo sapiens) = HOOK1 (Homo sapiens) (UniProt Q9UJC3); settings: cited from earlier work
HOOK1 (Homo sapiens), sequence (Q9UJC3 whole entry): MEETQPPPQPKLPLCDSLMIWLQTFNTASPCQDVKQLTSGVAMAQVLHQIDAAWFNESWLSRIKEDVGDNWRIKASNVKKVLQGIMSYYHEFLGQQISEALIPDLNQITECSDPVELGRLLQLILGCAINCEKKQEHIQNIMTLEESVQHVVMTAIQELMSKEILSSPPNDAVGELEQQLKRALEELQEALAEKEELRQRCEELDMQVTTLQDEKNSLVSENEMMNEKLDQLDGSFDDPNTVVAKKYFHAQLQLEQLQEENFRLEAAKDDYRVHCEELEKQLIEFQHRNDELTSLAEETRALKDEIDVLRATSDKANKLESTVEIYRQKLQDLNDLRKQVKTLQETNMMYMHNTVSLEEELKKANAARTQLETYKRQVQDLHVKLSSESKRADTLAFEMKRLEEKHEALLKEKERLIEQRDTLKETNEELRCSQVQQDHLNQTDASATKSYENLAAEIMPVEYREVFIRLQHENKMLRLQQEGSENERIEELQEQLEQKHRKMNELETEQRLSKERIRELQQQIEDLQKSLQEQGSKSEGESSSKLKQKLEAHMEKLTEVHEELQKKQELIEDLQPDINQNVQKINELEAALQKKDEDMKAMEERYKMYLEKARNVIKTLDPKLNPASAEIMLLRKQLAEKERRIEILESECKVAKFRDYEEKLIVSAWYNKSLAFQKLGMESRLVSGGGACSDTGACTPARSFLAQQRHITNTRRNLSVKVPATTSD

HOOK3 (Homo sapiens) = HOOK3 (Homo sapiens) (UniProt Q86VS8); settings: cited from earlier work
HOOK3 (Homo sapiens), sequence (Q86VS8 whole entry): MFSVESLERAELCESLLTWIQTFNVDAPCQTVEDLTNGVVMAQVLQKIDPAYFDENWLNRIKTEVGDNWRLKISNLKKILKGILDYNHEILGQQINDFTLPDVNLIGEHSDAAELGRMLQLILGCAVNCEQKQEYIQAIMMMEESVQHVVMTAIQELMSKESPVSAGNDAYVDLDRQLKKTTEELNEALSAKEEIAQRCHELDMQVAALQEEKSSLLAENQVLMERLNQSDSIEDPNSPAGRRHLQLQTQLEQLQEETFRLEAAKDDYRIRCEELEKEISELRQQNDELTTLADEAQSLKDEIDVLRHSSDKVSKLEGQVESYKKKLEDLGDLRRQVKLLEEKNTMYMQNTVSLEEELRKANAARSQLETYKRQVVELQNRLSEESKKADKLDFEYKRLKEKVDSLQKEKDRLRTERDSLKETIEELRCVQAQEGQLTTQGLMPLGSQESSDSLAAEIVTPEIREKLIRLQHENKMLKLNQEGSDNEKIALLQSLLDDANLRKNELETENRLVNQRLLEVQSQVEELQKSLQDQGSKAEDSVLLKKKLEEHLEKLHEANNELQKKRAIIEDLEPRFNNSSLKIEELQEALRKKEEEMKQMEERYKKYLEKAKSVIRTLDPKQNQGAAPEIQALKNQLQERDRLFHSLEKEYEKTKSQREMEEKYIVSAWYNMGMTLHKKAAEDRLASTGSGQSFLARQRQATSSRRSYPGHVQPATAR

LIC1_(433–458), amphipathic helix of the dynein light intermediate chain-1, sequence (Q9Y6G9 433-458): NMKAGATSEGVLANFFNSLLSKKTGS
LIC1, sequence (Q9Y6G9 whole entry): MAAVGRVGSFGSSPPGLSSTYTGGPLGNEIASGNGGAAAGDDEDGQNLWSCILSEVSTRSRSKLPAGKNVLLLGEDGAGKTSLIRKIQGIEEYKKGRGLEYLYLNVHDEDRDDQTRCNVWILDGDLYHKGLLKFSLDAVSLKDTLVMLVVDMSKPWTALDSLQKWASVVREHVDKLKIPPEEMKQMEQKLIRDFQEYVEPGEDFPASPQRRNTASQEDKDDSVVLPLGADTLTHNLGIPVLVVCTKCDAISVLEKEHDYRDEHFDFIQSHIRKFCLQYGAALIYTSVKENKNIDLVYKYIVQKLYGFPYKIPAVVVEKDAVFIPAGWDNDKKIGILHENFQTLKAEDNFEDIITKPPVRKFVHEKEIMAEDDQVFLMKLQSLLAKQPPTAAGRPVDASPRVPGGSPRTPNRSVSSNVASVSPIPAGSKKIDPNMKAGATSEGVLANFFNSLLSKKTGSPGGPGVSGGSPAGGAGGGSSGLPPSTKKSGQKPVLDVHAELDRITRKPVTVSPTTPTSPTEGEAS

Substance	Kd [1] [µM]	stoichiometry N [1]	Kd [2] [µM]	stoichiometry N [2]	Kd (HOOK1 (Homo sapiens)) [µM]	Kd (HOOK3 (Homo sapiens)) [µM]
LIC1_(433–458), amphipathic helix of the dynein light intermediate chain-1 (from UniProt Q9Y6G9 433-458) (peptide)	6.8	2	6.2	1.1		
LIC1 (from UniProt Q9Y6G9)					15.7	6.3
